This experiment concerns the target human cytosolic aminopeptidase P, R535A mutant (human) (UniProt Q9NQW7).

This passage reports Km for bradykinin of the hydrolysis catalysed by R535A hcAMPP (HPLC of des-Arg-bradykinin, 50 mM Tris-HCl pH 7.5, 37°C), with 0, 0.1, 1 and 10 mM guanidine hydrochloride: 350, 327, 144 and 163 μM results from publication PMC5774706.

Sequence of human cytosolic aminopeptidase P, R535A mutant (human) (Q9NQW7 whole entry R535A): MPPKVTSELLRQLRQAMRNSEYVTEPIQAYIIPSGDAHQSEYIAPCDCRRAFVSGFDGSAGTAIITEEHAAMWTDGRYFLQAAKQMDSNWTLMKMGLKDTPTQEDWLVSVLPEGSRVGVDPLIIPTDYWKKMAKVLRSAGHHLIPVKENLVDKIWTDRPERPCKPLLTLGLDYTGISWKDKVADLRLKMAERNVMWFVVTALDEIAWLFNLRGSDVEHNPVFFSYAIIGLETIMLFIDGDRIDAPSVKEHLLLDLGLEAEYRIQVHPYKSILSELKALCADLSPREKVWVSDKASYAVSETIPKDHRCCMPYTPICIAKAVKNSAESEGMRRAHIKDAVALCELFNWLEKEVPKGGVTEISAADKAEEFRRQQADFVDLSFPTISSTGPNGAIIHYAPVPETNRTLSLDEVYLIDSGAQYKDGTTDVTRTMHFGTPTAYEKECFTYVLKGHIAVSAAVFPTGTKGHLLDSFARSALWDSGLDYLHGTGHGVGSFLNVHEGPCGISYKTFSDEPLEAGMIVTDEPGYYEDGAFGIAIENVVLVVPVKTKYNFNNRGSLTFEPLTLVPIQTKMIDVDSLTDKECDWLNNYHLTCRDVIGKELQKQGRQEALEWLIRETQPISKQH
Sequence of bradykinin (P01042 whole entry, looked up): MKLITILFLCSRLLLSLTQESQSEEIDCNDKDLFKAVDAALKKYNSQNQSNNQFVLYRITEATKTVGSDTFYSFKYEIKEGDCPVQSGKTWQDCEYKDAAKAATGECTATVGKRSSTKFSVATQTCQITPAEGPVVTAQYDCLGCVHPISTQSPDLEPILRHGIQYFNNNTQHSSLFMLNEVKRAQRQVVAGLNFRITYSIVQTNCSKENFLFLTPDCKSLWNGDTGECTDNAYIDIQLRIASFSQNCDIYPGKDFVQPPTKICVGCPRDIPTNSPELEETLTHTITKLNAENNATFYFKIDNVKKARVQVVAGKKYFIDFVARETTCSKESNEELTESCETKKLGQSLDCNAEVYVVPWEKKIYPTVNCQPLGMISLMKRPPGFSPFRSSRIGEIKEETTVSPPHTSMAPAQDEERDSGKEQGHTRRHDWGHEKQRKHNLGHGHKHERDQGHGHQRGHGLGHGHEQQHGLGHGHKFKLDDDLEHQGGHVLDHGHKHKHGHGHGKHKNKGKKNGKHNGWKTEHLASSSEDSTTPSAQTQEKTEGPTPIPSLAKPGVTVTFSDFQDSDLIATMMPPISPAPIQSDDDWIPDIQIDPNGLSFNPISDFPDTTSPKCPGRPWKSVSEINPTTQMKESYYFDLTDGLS

For the substance “bradykinin (from UniProt P01042 381-389) (peptide)”, the Km for bradykinin of the hydrolysis catalysed by R535A hcAMPP (HPLC of des-Arg-bradykinin, 50 mM Tris-HCl pH 7.5, 37°C), with 0, 0.1, 1 and 10 mM guanidine hydrochloride: 350, 327, 144 and 163 μM is 350 μM.
